Assay results published in publication PMC2233703.

Key:
[1] = target: sulfonylurea receptor SUR1 (UniProt Q09427)
[2] = target: sulfonylurea receptor SUR1 (UniProt Q09427); remark: listed apart in the source
[3] = target: sulfonylurea receptor SUR1 (UniProt Q09427); remark: listed apart in the source

Sequence of UniProt Q09427 (Q09427 whole entry): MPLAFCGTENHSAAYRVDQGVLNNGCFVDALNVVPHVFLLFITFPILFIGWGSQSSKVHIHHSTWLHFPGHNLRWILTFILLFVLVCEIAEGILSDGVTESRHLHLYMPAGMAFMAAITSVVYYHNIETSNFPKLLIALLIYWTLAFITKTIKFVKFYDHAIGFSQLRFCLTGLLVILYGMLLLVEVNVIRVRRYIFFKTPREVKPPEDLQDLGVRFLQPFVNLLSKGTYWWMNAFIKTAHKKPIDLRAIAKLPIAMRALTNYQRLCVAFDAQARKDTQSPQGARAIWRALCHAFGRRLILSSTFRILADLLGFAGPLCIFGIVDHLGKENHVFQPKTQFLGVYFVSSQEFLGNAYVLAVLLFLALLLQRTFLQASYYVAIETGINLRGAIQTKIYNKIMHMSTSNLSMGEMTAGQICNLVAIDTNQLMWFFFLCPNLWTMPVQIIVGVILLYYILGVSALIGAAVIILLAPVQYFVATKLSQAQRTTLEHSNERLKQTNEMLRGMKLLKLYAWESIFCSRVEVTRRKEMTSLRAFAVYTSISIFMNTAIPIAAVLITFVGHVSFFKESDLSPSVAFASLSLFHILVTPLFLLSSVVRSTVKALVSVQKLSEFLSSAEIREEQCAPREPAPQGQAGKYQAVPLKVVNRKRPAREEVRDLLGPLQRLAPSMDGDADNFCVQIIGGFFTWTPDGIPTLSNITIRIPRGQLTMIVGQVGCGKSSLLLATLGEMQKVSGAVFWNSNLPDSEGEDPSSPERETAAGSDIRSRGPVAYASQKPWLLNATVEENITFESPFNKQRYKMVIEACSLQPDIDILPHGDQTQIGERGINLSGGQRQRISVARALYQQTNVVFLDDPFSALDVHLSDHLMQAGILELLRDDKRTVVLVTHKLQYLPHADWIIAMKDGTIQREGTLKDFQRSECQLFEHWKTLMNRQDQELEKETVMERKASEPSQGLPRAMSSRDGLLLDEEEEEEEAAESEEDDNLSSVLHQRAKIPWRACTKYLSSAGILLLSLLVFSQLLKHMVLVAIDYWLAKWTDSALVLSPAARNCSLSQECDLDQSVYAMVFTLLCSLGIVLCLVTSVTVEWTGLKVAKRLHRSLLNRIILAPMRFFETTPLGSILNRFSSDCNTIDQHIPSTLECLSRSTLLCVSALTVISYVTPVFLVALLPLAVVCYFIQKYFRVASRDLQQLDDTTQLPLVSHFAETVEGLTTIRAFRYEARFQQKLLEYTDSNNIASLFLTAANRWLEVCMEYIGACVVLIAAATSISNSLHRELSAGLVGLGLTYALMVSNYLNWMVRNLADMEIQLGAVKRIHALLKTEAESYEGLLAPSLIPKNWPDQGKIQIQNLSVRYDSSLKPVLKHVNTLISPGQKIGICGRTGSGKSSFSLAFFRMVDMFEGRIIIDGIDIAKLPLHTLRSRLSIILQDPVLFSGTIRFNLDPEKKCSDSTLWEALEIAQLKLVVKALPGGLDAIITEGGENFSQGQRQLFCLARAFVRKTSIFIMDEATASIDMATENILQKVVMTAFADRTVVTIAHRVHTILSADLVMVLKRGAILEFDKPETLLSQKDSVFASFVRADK

inhibition of channel activity by 200 nM glyburide, inside-out patch clamp [1] [%] | reactivation by MgADP of ATP-inhibited channels, inside-out patch clamp [2] [%] | inhibition of channel activity by 0.5 μM glyburide, inside-out patch clamp [3] [%] | Binder
45 | 46 |  | Kir6.2 wild-type linked to GFP at the COOH terminus (natural protein) MLSRKGIIPEEYVLTRLAEDPAEPRYRTRERRARFVSKKGNCNVAHKNIREQGRFLQDVFTTLVDLKWPHTLLIFTMSFLCSWLLFAMVWWLIAFAHGDLAPGEGTNVPCVTSIHSFSSAFLFSIEVQVTIGFGGRMVTEECPLAILILIVQNIVGLMINAIMLGCIFMKTAQAHRRAETLIFSKHAVITLRHGRLCFMLRVGDLRKSMIISATIHMQVVRKTTSPEGEVVPLHQVDIPMENGVGGNGIFLVAPLIIYHVIDSNSPLYDLAPSDLHHHQDLEIIVILEGVVETTGITTQARTSYLADEILWGQRFVPIVAEEDGRYSVDYSKFGNTIKVPTPLCTARQLDEDRSLLDALTLASSRGPLRKRSVAVAKAKPKFSISPDSLS
 | 6 | 5.5 | Kir6.2 mutant R176C linked to GFP (natural protein) MLSRKGIIPEEYVLTRLAEDPAEPRYRTRERRARFVSKKGNCNVAHKNIREQGRFLQDVFTTLVDLKWPHTLLIFTMSFLCSWLLFAMVWWLIAFAHGDLAPGEGTNVPCVTSIHSFSSAFLFSIEVQVTIGFGGRMVTEECPLAILILIVQNIVGLMINAIMLGCIFMKTAQAHCRAETLIFSKHAVITLRHGRLCFMLRVGDLRKSMIISATIHMQVVRKTTSPEGEVVPLHQVDIPMENGVGGNGIFLVAPLIIYHVIDSNSPLYDLAPSDLHHHQDLEIIVILEGVVETTGITTQARTSYLADEILWGQRFVPIVAEEDGRYSVDYSKFGNTIKVPTPLCTARQLDEDRSLLDALTLASSRGPLRKRSVAVAKAKPKFSISPDSLS
